Assay [1] deals with monomeric ACE2 (a.a 19-611), C-terminally His-tagged (human) (UniProt Q9BYF1). As to the kind of experiment: mass photometry.
Assay [2] has as its target HEK-derived SARS-CoV-2 Wuhan-Hu-1 spike receptor-binding domain (RBDHEK) (SARS-CoV-2 (Wuhan-Hu-1)) (UniProt P0DTC2). As to the kind of experiment: mass photometry.

Chain of monomeric ACE2 (a.a 19-611), C-terminally His-tagged (human) (Q9BYF1 19-611): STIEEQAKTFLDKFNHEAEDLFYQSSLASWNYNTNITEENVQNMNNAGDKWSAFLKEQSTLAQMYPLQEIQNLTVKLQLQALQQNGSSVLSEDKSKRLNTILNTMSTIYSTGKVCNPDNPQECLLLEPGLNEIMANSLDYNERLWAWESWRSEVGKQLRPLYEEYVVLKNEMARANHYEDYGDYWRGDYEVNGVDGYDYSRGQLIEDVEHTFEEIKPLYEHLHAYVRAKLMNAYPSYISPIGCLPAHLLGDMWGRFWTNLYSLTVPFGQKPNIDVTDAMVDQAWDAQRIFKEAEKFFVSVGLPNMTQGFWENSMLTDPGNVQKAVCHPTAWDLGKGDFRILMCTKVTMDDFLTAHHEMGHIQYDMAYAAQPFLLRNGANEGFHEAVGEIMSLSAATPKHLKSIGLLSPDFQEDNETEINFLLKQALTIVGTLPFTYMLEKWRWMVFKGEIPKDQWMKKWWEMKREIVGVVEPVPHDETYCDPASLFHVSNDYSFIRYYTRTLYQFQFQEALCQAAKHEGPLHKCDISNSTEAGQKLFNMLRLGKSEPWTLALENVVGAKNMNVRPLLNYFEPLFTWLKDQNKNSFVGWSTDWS

Regarding “HEK-derived SARS-CoV-2 Wuhan-Hu-1 spike receptor-binding domain (RBDHEK) (from UniProt P0DTC2 319-541) (domain or fragment)”, the binding occupancy in assay [1] was found to be 33%. Besides, in assay [2], the percent dimeric species was determined as 19.6% and the stoichiometry N (as a rule, a count of units in the complex or per binding partner) was found to be 2.

The values are drawn from paper PMC11758712.
